This is an account of results in PMC8591454 (Frontiers in Microbiology, 2021).

In this test the target is T1, truncated capsid protein sar239 from genotype 1 HEV Sar55 strain (hepatitis E virus genotype 1, strain …, UniProt P33426 368-606).
T1 sequence: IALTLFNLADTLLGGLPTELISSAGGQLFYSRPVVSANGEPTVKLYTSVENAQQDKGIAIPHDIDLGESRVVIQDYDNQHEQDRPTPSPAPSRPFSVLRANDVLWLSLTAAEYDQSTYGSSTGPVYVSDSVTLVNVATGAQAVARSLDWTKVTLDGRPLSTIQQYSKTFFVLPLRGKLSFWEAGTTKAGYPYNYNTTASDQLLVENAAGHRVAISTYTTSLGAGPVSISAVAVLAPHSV
The test can be described thus: ELISA. The following applies: both partners purified.

B1: His-tagged cell division control protein 42 (CDC42-His) (natural protein)
chain: not shown
notes: also called recombinant CDC42-His protein
B1: the binding result is “binds”.
